These results are taken from patent publication US20250122266A1, “SMART SINGLE-DOMAIN INTRABODIES WITH PRECISION SWITCHES FOR BIOMEDICAL APPLICATIONS” (THE TEXAS A&M UNIVERSITY SYSTEM, priority 2020, published 2025).

A value given as a limit tells only on which side of the number the result lay.

For assay [1], the target named is ER anchored mCh (mCh fused with human Sac1 residues 521-587) (human) (UniProt Q9NTJ5). In words: cytosol-to-ER translocation in HeLa cells under light.
Assay [2] addresses Mito-mCh (AKAP1-mCh, mitochondria-anchored mCherry) (human) (UniProt Q92667). Put plainly: cytosol-to-mitochondria translocation in HeLa cells under light.
For assay [3], the target named is NE-tethered SH2 domain of Abl kinase (SH2 fused with mEmerald-lamin A) (UniProt P00519). In words: NE/NP ratio of mCh signal in HeLa cells over light-dark cycles.
Assay [4] addresses Mito-mCh (AKAP1-mCh, mitochondria-anchored mCherry) (human) (UniProt Q92667). In words: Mito-to-cytosol ratio of GFP-rapabody in HeLa cells against rapamycin dose; the concentration is that of rapamycin, not of a protein.
Assay [5] shares this target. Put plainly: mitochondria translocation assay in HeLa cells, 5 µM caffeine.
The target is the same in assay [6]. Put plainly: mitochondria translocation assay in HeLa cells, caffeine washed out.
The target is the same in assay [7]. Put plainly: Mito-to-cytosol ratio of GFP-caffebody in HeLa cells against caffeine dose; the concentration is that of caffeine, not of a protein.

B1: GFP-2xsunbody (dimeric concatemer of sunbody) (VHH, not shown: large carriers)
chain: LATTLERIEKNFVITDPRLPDNPIIFASDSFLQLTEYSREEILGRNCRFLQGPETDRATVRKIRDAIDNQTEVTVQLINYTKSGKKFWNLFHLQPMRDQKGDVQYFIGVQLDGTEHVRDAAEREGVMLIKKTAENIDEAAKELKLMAQVQLVESGGGLVQAGGSLRLSCAVSGRPFSEYNLGWFRQAPGKEREFVARIRSSGTTVYTDSVKGRFSASRDNALERIEKNFVITDPRLPDNPIIFASDSFLQLTEYSREEILGRNCRFLQGPETDRATVRKIRDAIDNQTEVTVQLINYTKSGKKFWNLFHLQPMRDQKGDVQYFIGVQLDGTEHVRDAAEREGVMLIKKTAENIDEAAKNMGYLQLNSLEPEDTAVYYCAMSRVDTDSPAFYDYWGQGTQVTVSTPRSLATTLERIEKNFVITDPRLPDNPIIFASDSFLQLTEYSREEILGRNCRFLQGPETDRATVRKIRDAIDNQTEVTVQLINYTKSGKKFWNLFHLQPMRDQKGDVQYFIGVQLDGTEHVRDAAEREGVMLIKKTAENIDEAAKELKLMAQVQLVESGGGLVQAGGSLRLSCAVSGRPFSEYNLGWFRQAPGKEREFVARIRSSGTTVYTDSVKGRFSASRDNALERIEKNFVITDPRLPDNPIIFASDSFLQLTEYSREEILGRNCRFLQGPETDRATVRKIRDAIDNQTEVTVQLINYTKSGKKFWNLFHLQPMRDQKGDVQYFIGVQLDGTEHVRDAAEREGVMLIKKTAENIDEAAKNMGYLQLNSLEPEDTAVYYCAMSRVDTDSPAFYDYWGQGTQVTVSTPRS
Consider B1, for which the fold increase in the signal-to-background ratio against 1x sunbody in assay [1] and in assay [2] was more than 2 fold each time.

B2: mCh-moonbody (anti-SH2 moonbody, variant S5.1) (designed binder, not shown: large carriers)
chain: VSSVPTKLEVVDATPTSLKISWDAYYSSWQNVKYYRITYGETGGDSPVQEFTVPGYYSTATISGLKPGSGLATTLERIEKNFVITDPRLPDNPIIFASDSFLQLTEYSREEILGRNCRFLQGPETDRATVRKIRDAIDNQTEVTVQLINYTKSGKKFWNLFHLQPMRDQKGDVQYFIGVQLDGTEHVRDAAEREGVMLIKKTAENIDEAAKELGVDYTITVYAYDTFFPGYEPNSPISINYRT
Turning to B2, in assay [3], the activation half-life (light-induced dissociation from the antigen) turned out to be 7.8 s and the deactivation half-life (return to the antigen in the dark) was determined as 46.5 s.

B3: GFP-rapabody (anti-mCh nanobody LaM8 with UniRapR in the S3 loop) (VHH, not shown: large carriers)
chain: QLVESGGGLVQAGGSLRLSCAVSGRPFSEYNLGWFRQAPGKEREFVARIRSSGTTVYTDSVKGRFSASRDNATCVVHYTGMLEDGKKFDSSRDRNKPFKFMLGKQEVIRGWEEGVAQMSVGQRAKLTISPDYAYGATGHGSGSGSGVKDLLQAWDLYYHVFRRISGPPGPGSGLWHEMWHEGLEEASRLYFGERNVKGMFEVLEPLHAMMERGPQTLKETSFNQAYGRDLMEAQEWCRKYMKSGSSGGSGSGIIPPHATLVFDVELLKLEKNMGYLQLNSLEPEDTAVYYCAMSRVDTDSPAFYDYWGQGTQVTVSTPRS
Take B3: the EC50 of rapamycin (dose of the small-molecule switch) for release from the antigen in assay [4] amounted to 1600 nM.

B4: GFP-caffebody (anti-mCh nanobody LaM8 with 2xacVHH in the S3 loop) (VHH, not shown: large carriers)
chain: MAQVQLVESGGGLVQAGGSLRLSCAVSGRPFSEYNLGWFRQAPGKEREFVARIRSSGTTVYTDSVKGRFSASRDNAEVQLQASGGGLVQAGGSLRLSCTASGRTGTIYSMAWFRQAPGKEREFLATVGWSSGITYYMDSVKGRFTISRDNAKNSAYLQMNSLKPEDTAVYYCTATRAYSVGYDYWGQGTQVTVSHAAAGAPVPYPDPLEPREQKLISEEDLLEAVYSGGGGGGGSGGGGGGGSGGGGGGGSGEVQLQASGGGLVQAGGSLRLSCTASGRTGTIYSMAWFRQAPGKEREFLATVGWSSGITYYMDSVKGRFTISRDNAKNSAYLQMNSLKPEDTAVYYCTATRAYSVGYDYWGQGTQVTVSKNMGYLQLNSLEPEDTAVYYCAMSRVDTDSPAFYDYWGQGTQVTVSTPRS
B4 had a half-life of caffeine-induced translocation to the antigen (t½, on) in assay [5] of 16.3 s. In assay [6], this molecule came in with a deactivation half-life after withdrawal of caffeine of 23.6 s. Moreover, the EC50 of caffeine (dose of the small-molecule switch) for binding to the antigen in assay [7] came out at 2300 nM.
